In assay [1] the target is HLA-B*08:01. The assay is described as follows: IEDB peptide-MHC binding, purified MHC/competitive/fluorescence; ≥ and ≤ were set here for values at or beyond the usual limits of such assays. The conditions noted are these: source organism: Zaire ebolavirus.
The target of assay [2] is HLA-B*15:01. The description is as above. The conditions noted are these: source organism: Zaire ebolavirus.
In assay [3] the target is HLA-A*24:02. The assay is described as above. The conditions noted are these: source organism: Zaire ebolavirus.
The target of assay [4] is HLA-A*80:01. Nature of the assay: IEDB peptide-MHC binding, purified MHC/direct/fluorescence; filed as Kd, often an IC50 or EC50 that approximates it; ≥ and ≤ were set here for values at or beyond the usual limits of such assays.
Assay [5] deals with HLA-A*01:01. Nature of the assay: IEDB peptide-MHC binding, purified MHC/competitive/fluorescence; filed as Kd, often an IC50 or EC50 that approximates it; ≥ and ≤ were set here for values at or beyond the usual limits of such assays. Particulars: source organism: Mus musculus.
For assay [6], the target named is HLA-A*29:02. The assay is described as above. The conditions noted are these: source organism: Mus musculus.
Assay [7] has as its target HLA-B*58:01. The description is as above.
For assay [8], the target named is HLA-A*02:01. The assay is described as follows: IEDB peptide-MHC binding, purified MHC/competitive/fluorescence; ≥ and ≤ were set here for values at or beyond the usual limits of such assays. Particulars: source organism: Zaire ebolavirus.
Assay [9] has as its target HLA-C*12:03. The assay is described as follows: IEDB peptide-MHC binding, purified MHC/direct/fluorescence; filed as Kd, often an IC50 or EC50 that approximates it; ≥ and ≤ were set here for values at or beyond the usual limits of such assays.
Assay [10] deals with HLA-B*58:01. The description is as above.
Assay [11] deals with HLA-A*24:03. The assay is described as above.
Assay [12] concerns the target HLA-B*44:02. The description is as above.
In assay [13] the target is HLA-A*03:01. Described as above.
Assay [14] has as its target HLA-B*27:05. The description is as above.
In assay [15] the target is HLA-B*08:01. The description is as above.
In assay [16] the target is HLA-A*01:01. The description is as above.
Assay [17] deals with HLA-A*30:01. The assay is described as above.
Assay [18] has as its target HLA-B*40:01. Described as above.
Assay [19] has as its target HLA-A*69:01. The description is as above.
For assay [20], the target named is HLA-B*35:01. The assay is described as above.
In assay [21] the target is HLA-A*02:01. Described as above.
For assay [22], the target named is HLA-B*15:01. The description is as above.
For assay [23], the target named is HLA-A*31:01. Described as above.
The target in assay [24] is HLA-A*26:01. The assay is described as above.
Assay [25] deals with HLA-B*07:02. Nature of the assay: IEDB peptide-MHC binding, purified MHC/competitive/fluorescence; ≥ and ≤ were set here for values at or beyond the usual limits of such assays. Particulars: source organism: Zaire ebolavirus.
Assay [26] addresses HLA-C*05:01. The assay is described as follows: IEDB peptide-MHC binding, purified MHC/direct/fluorescence; filed as Kd, often an IC50 or EC50 that approximates it; ≥ and ≤ were set here for values at or beyond the usual limits of such assays.
For assay [27], the target named is HLA-B*07:02. The assay is described as follows: IEDB peptide-MHC binding, purified MHC/competitive/fluorescence; filed as Kd, often an IC50 or EC50 that approximates it; ≥ and ≤ were set here for values at or beyond the usual limits of such assays.
In assay [28] the target is HLA-B*51:01. Described as above. The conditions noted are these: source organism: Escherichia coli O139:H28 str. E24377A.
Assay [29] deals with HLA-C*15:02. The assay is described as follows: IEDB peptide-MHC binding, purified MHC/direct/fluorescence; filed as Kd, often an IC50 or EC50 that approximates it; ≥ and ≤ were set here for values at or beyond the usual limits of such assays.
Assay [30] has as its target HLA-C*03:03. Described as above.
The target in assay [31] is HLA-C*14:02. The assay is described as above. Particulars: source organism: Mycobacterium tuberculosis H37Rv.
The target of assay [32] is HLA-A*03:01. Nature of the assay: IEDB peptide-MHC binding, purified MHC/competitive/fluorescence; filed as Kd, often an IC50 or EC50 that approximates it; ≥ and ≤ were set here for values at or beyond the usual limits of such assays.
Assay [33] deals with HLA-A*26:01. Described as above. The conditions noted are these: source organism: Salmonella enterica subsp. enterica serovar Typhi.
The target of assay [34] is HLA-B*07:02. Nature of the assay: IEDB peptide-MHC binding, purified MHC/direct/fluorescence; filed as Kd, often an IC50 or EC50 that approximates it; ≥ and ≤ were set here for values at or beyond the usual limits of such assays. Particulars: source organism: Salmonella enterica subsp. enterica serovar Typhi.
Assay [35] addresses HLA-A*11:01. Described as above. The conditions noted are these: source organism: Salmonella enterica subsp. enterica serovar Typhi.
[36] abbreviates: source organism: human gammaherpesvirus 4.
Where [37] appears, read: source organism: Coxiella burnetii.
The mark [38] stands for this setting: source organism: Shigella flexneri 5 str. 8401.
The mark [39] stands for this setting: source organism: Mycobacterium tuberculosis H37Rv.
[40] abbreviates: source organism: Salmonella enterica subsp. enterica serovar Typhi.
Where [41] appears, read: source organism: Salmonella enterica.

The term IC50 denotes the concentration that inhibits the measured activity by half. The low end stands for greater potency in that assay, the high end for weaker potency in that assay. On to PVMNHKNKF, for which the IC50 in assay [1] was 11000 nM; in assay [2], at least 364000 nM; in [3] it was 106 nM.
The Kd is a measure of binding affinity in units of concentration. With AFFAERLYY, the values for the Kd in [4] (source organism: Mus musculus), in assay [5] and in assay [6] were 19.5 nM, at least 20000 nM and 0.2 nM, respectively.
In the case of ATVKGMQSY, the Kd in assay [7] (setting [36]) is 4380 nM.
On to SDMDYHKIL, for which the IC50 is at least 177000 nM in assay [1], at least 241000 nM in assay [8] and at least 145000 nM in assay [3].
VVEKQSGLY showed a Kd in assay [4] (source organism: West Nile virus) of 0.8 nM.
On to AAVDNAVVV, for which the dissociation constant (Kd) in assay [9] (source organism: Leishmania major strain Friedlin) was at most 1 nM.
Turning to VMKRNFIDF, the Kd in assay [10] (setting [37]) was at least 20000 nM; in assay [11] (setting [37]) it was 4910 nM; in assay [12] (setting [37]) it was at least 20000 nM; in assay [13] (setting [37]), at least 20000 nM; in [14] (setting [37]), at least 20000 nM; in assay [15] (setting [37]), 2250 nM. In addition, the Kd in assay [16] (setting [37]) was at least 20000 nM; in assay [17] (setting [37]) it was 3630 nM; in assay [18] (setting [37]), at least 20000 nM; in assay [19] (setting [37]) it was at least 20000 nM; in assay [20] (setting [37]) it was 1130 nM; in assay [21] (setting [37]), at least 20000 nM. The Kd in assay [22] (setting [37]) is 84.4 nM; in assay [23] (setting [37]) it was at least 20000 nM; in [24] (setting [37]), at least 20000 nM.
With RTAKVKNEV, the IC50 in assay [1] is 56800 nM; in [25], 10300 nM; in assay [8], 57200 nM; in assay [3], at least 75300 nM.
For the sequence LLDEPTNNL, the Kd was found to be 88.3 nM in assay [19] (source organism: Burkholderia mallei) and 7 nM in assay [26] (source organism: Bifidobacterium longum DJO10A).
As for LPRDASQIT, the values for the Kd in assay [27] (source organism: Escherichia coli O139:H28 str. E24377A) and in assay [28] were 97.4 nM and at least 20000 nM, respectively.
For KVHLTPAQL, the Kd in assay [29] (setting [38]) was at least 20000 nM; in assay [27] (setting [38]) it was 154 nM.
As for YMNGTMSQV, the dissociation constant Kd in [29] (source organism: Homo sapiens) was determined as 372 nM; in assay [30] (source organism: Homo sapiens) it was 371 nM; in [9] (source organism: Homo sapiens), 88 nM.
For AAAANTTAL, the Kd in [30] (setting [39]) is at most 1 nM; in [31], 607 nM; in assay [26] (setting [39]), 1680 nM.
Take ILLARLFLY: the Kd came out at 3.3 nM in assay [4] (setting [36]) and 2060 nM in assay [32] (setting [36]).
For the sequence ITLKVFAGY, the Kd in assay [7] (setting [40]) turned out to be 11.6 nM; in assay [32] (setting [40]), 2690 nM; in [33], 287 nM.
For the sequence VPQTDAGVT, the dissociation constant Kd in assay [10] (setting [40]) was at least 10000 nM; in assay [11] (setting [40]) it was 1270 nM; in assay [12] (setting [41]), at least 20000 nM; in assay [13] (setting [41]), at least 20000 nM; in assay [14] (setting [41]) it was at least 20000 nM; in [15] (setting [41]) it was at least 20000 nM. Besides, the Kd in [16] (setting [41]) was at least 20000 nM; in assay [17] (setting [40]) it was 4400 nM; in assay [34] it was 1890 nM; in assay [18] (setting [41]), at least 20000 nM; in assay [35] it was 2900 nM; in assay [19] (setting [41]), at least 20000 nM. Further, the Kd in assay [20] (setting [40]) is 888 nM; in [21] (setting [41]), at least 20000 nM; in assay [22] (setting [41]), at least 20000 nM; in assay [23] (setting [40]), 592 nM; in assay [24] (setting [41]), at least 20000 nM.
